Experimental data from publication PMC2824085 (2010).

Molecular target: Man9GlcNAc2 glycopeptide isolated from soybean agglutinin (soybean, UniProt P05046, Man9GlcNAc2 oligosaccharide, N-linked)
Assay: SPR; glycopeptide immobilized

Sequence of Man9GlcNAc2 glycopeptide isolated from soybean agglutinin (P05046 whole entry): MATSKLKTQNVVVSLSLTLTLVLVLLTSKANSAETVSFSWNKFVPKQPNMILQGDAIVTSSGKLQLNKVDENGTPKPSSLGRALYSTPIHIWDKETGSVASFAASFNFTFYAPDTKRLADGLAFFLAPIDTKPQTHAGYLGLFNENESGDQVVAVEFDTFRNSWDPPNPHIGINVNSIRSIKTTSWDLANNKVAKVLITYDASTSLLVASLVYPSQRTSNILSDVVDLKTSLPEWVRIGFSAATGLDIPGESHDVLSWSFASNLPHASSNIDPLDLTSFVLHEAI

Kd: 66 µM
B1: monomeric carbohydrate-recognition domain (CRD) from DC-SIGN (domain or fragment)
chain: ERLCHPCPWEWTFFQGNCYFMSNSQRNWHDSITACKEVGAQLVVIKSAEEQNFLQLQSSRSNRFTWMGLSDLNQEGTWQWVDGSPLLPSFKQYWNRGEPNNVGEEDCAEFSGNGWNDDKCNLAKFWICKKSAASCSRDEEQFLSPAPATPNPPPA
